Laboratory results from patent publication US11180770B2, “HPPD variants and methods of use” (BASF Agricultural Solutions Seed US LLC, priority 2017, dated 2021).

Tested on: HPPD polypeptides
Assay: coupled HPPD activity assay: turnover and residual turnover in crude extracts
Format: biochemical, Pseudomonas fluorescens
Details: for Residual turnover: presence of 100 μM Cmpd. 1, changes in absorbance (OD) at 320 nm; for Residual turnover / Turnover: high substrate concentration; for turnover / residual turnover in the presence of Cmpd. 1 compared with a reference HPPD polypeptide, in words: comparison with the reference or parent polypeptide; for Residual turnover [%]: 100 μM Cmpd. 1, signal change with inhibitor divided by signal change without inhibitor; for Turnover: absence of Cmpd. 1, kinetic changes in absorbance (OD) at 320 nm, 30 min
Procedure: The activity of HPPD polypeptides was determined in absence or presence of HPPD inhibitors using the coupled HPPD activity assay (FIG. 1).
For the determination of the residual activity, the apparent kinetic constant (kapp) of the determined substrate conversion was measured as kinetic changes in absorbance (OD) at 320 nm in a coupled assay, in that homogentisate (HGA) formed by HPPD from HPP is directly converted into the well absorbing molecule maleylacetoacetate (MAA) by a second enzyme homogentisate dioxygenase (HGD), applied in excess uniformly in all assays (see FIG. 1). The measurements were performed in 384 micro titer plates (Greiner Bio-One GmbH, Frickenhausen, Germany) by plate readers (Tecan infinite M1000 or M1000PRO, Tecan, Männedorf, Switzerland). The kcat/kM ratio of an enzymatic activity is proportional to the apparent kinetic constant kapp and is proportional to kcat/kM*[E] ([E]=enzyme concentration). […] As both kapp measurements in the presence and absence of inhibitor were performed by use of the identical enzyme sample, crude or purified, and thereby at the same enzyme concentration, the enzyme concentration eliminates from the calculation of residual activity and the ratio of both kapp directly indicates the change of kM due to the inhibition.
The assay solution used for determination of residual activities in raw HPPD polypeptide samples was composed by 200 mM sodium phosphate (Merck, Darmstadt, Germany, pH 7.0), 5 mM MgCl2 (Merck, Darmstadt, Germany), 20 mM ascorbate (Sigma-Aldrich, St. Louis, USA), 1 mM DTT (Sigma-Aldrich, St. Louis, USA), 0.1% Pluronic F-68 (Sigma-Aldrich, St. Louis, USA), 40 μM FeSO4 (Sigma-Aldrich, St. Louis, USA), about 8 mg/ml purified HGD and 500 μM HPP from a 1 M stock solution in DMSO (Sigma-Aldrich, St. Louis, USA) and equilibrated for 20 min on ice. For every HPPD polypeptide sample two assays were performed in quadruplets, whereby 5 μl of HPPD polypeptide sample were mixed firstly with 5 μl buffer (1×BugBuster®; (Merck, Darmstadt, Germany); in 140 mM Tris, pH 7.8, with 1:25000 diluted BNase®; Qiagen, Hilden, Germany)) or 5 μl inhibitor diluted in the same buffer from a 0.1 M stock solution in DMSO (200 μM resulting in 100 μM in the HPPD polypeptide/inhibitor sample) in the reference and inhibition assay, respectively, and subsequently with 10 μl assay solution. The change in absorbance at 320 nm was followed in 1 min intervals for 30 min. The kapp values were calculated as signal slope over time in the early phase of the kinetic reaction, usually for the first 5-10 minutes of the measurements. Additionally and according to the calculated residual activity, the total conversion, i.e. the absolute change in signal, in the 30 min timeframe was monitored as measure of turnover, and a residual turnover was calculated by dividing the change in signal in the presence of inhibitor by the change in signal in the reference sample without inhibitor.
Residual turnover were determined according to Example 3 by measuring total change in signal in the presence and absence of Cmpd. 1 (2-chloro-3-(methylsulfanyl)-N-(1-methyl-1H-tetrazol-5-yl)-4-(trifluoromethyl)benzamide). For each mutant HPPD polypeptide, the total change in signal without HPPD inhibitor herbicides served for normalization of the total change in signal in the presence of the herbicide.

Row | Molecule | Residual turnover | turnover / residual turnover in the presence of Cmpd. 1 compared with a reference HPPD polypeptide, in words | Residual turnover [%] | Turnover
1 | SEQ ID NO:2 (protein, mutant HPPD polypeptide) MADLYENPMGLMGFEFIEFASPTPGTLEPIFEIMGFTKVATHRSKNVHLYRQGEINLILNNEPNSIASYFAAEHGPSVCGMAFRVKDSQKAYNRALELGAQPIHIDTGPMELNLPAIKGIGGAPLYLIDRFGEGSSIYDIDFVYLEGVERNPVGAGLKVIDHLTHNVYRGRMVYWANFYEKLFNFREARYFDIKGEYTGLTSKAMSAPDGMIRIPLNEESSKGAGQIEEFLMQFNGEGIQHVAFLTDDLVKTWDALKKIGMRFMTAPPDTYYEMLEGRLPDHGEPVDQLQARGILLDGSSVEGDKRLLLQIFSETLMGPVFFEFIQRKGDDGFGPWNFAQLFESIERDQVRRGVLTAD | 0.026 |  |  | 
2 | SEQ ID NO:71 (protein, mutant HPPD polypeptide) MADLYENPMGLMGFEFIEFASPTPGTLEPIFEIMGFTKVATHRSKNVHLYRQGEINLILNNEPNSIASYFAAEHGPSVCGMAFRVKDSQKAYNRALELGAQPIHIDTGPMELNLPAIKGIGGAPLYLIDRFGEGSSIYDIDFVYLEGVERNPVGAGLKVIDHLTHNVYRGRMVYWANFYEKLFNFREARYFDIKGEYTGLTSKAMSAPDGMIRILLNEESSKGAGQIEEFLMQFNGEGIQHVAFLTDDLVKTWDALKKIGMRFMTAPPDTYYEMLEGRLPDHGEPVDQLQARGILLDGSSVEGDKRLLLQIFSETLMGPVFFEFIQRKGDDGFGPFNFKELFESIERDQVRRGVLTAD | 0.022 |  |  | 
3 | SEQ ID NO: 67: mutant PfHPPD: 213K 268A 270S 315R 335P 336H 337S 340V 344Q 345M (protein, mutant HPPD polypeptide, mutant PfHPPD: 213K 268A 270S 315R 335P 336H 337S 340V 344Q 345M) MADLYENPMGLMGFEFIEFASPTPGTLEPIFEIMGFTKVATHRSKNVHLYRQGEINLILNNEPNSIASYFAAEHGPSVCGMAFRVKDSQKAYNRALELGAQPIHIDTGPMELNLPAIKGIGGAPLYLIDRFGEGSSIYDIDFVYLEGVERNPVGAGLKVIDHLTHNVYRGRMVYWANFYEKLFNFREARYFDIKGEYTGLTSKAMSAPDGMIKIPLNEESSKGAGQIEEFLMQFNGEGIQHVAFLTDDLVKTWDALKKIGMRFMTAPADSYYEMLEGRLPDHGEPVDQLQARGILLDGSSVEGDKRLLLQIFSERLMGPVFFEFIQRKGDDGFGPHSFKVLFEQMERDQVRRGVLTAD |  | increase significantly the turnover and the residual turnover |  | 
4 | 48 (protein, mutant HPPD polypeptide) MADLYENPMGLMGFEFIEFASPTPGTLEPIFEIMGFTKVATHRSKNVHLYRQGEINLILNNEPNSIASYFAAEHGPSVCGMAFRVKDSQKAYNRALELGAQPIHIDTGPMELNLPAIKGIGGAPLYLIDRFGEGSSIYDIDFVYLEGVERNPVGAGLKVIDHLTHNVYRGRMVYWANFYEKLFNFREARYFDIKGEYTGLTSKAMSAPDGMIRIPLNEESSKGAGQIEEFLMQFNGEGIQHVAFLTDDLVKTWDALKKIGMRFMTAPGDNYYEMLEGRLPDHGEPVDQLQARGILLDGSSVEGDKRLLLQIFSETLMGPVFFEFIQRKGDDGFGPHSFKVLFEQMERDQVRRGVLTAD | 0.117 |  | 52 | 0.225
5 | SEQ ID NO: 24: mutant PfHPPD: 268A 335P 336H 337S 340V (protein, mutant HPPD polypeptide, mutant PfHPPD: 268A 335P 336H 337S 340V) MADLYENPMGLMGFEFIEFASPTPGTLEPIFEIMGFTKVATHRSKNVHLYRQGEINLILNNEPNSIASYFAAEHGPSVCGMAFRVKDSQKAYNRALELGAQPIHIDTGPMELNLPAIKGIGGAPLYLIDRFGEGSSIYDIDFVYLEGVERNPVGAGLKVIDHLTHNVYRGRMVYWANFYEKLFNFREARYFDIKGEYTGLTSKAMSAPDGMIRIPLNEESSKGAGQIEEFLMQFNGEGIQHVAFLTDDLVKTWDALKKIGMRFMTAPADTYYEMLEGRLPDHGEPVDQLQARGILLDGSSVEGDKRLLLQIFSETLMGPVFFEFIQRKGDDGFGPHSFKVLFESIERDQVRRGVLTAD |  | increase in the residual turnover |  | 
6 | SEQ ID NO: 6: mutant PfHPPD: 268A 270N 335P 336D 337S 340V (protein, mutant HPPD polypeptide, mutant PfHPPD: 268A 270N 335P 336D 337S 340V) MADLYENPMGLMGFEFIEFASPTPGTLEPIFEIMGFTKVATHRSKNVHLYRQGEINLILNNEPNSIASYFAAEHGPSVCGMAFRVKDSQKAYNRALELGAQPIHIDTGPMELNLPAIKGIGGAPLYLIDRFGEGSSIYDIDFVYLEGVERNPVGAGLKVIDHLTHNVYRGRMVYWANFYEKLFNFREARYFDIKGEYTGLTSKAMSAPDGMIRIPLNEESSKGAGQIEEFLMQFNGEGIQHVAFLTDDLVKTWDALKKIGMRFMTAPADNYYEMLEGRLPDHGEPVDQLQARGILLDGSSVEGDKRLLLQIFSETLMGPVFFEFIQRKGDDGFGPDSFKVLFESIERDQVRRGVLTAD |  | increase in the absolute turnover and absolute residual turnover |  | 
7 | 47 (protein, mutant HPPD polypeptide) MADLYENPMGLMGFEFIEFASPTPGTLEPIFEIMGFTKVATHRSKNVHLYRQGEINLILNNEPNSIASYFAAEHGPSVCGMAFRVKDSQKAYNRALELGAQPIHIDTGPMELNLPAIKGIGGAPLYLIDRFGEGSSIYDIDFVYLEGVERNPVGAGLKVIDHLTHNVYRGRMVYWANFYEKLFNFREARYFDIKGEYTGLTSKAMSAPDGMIRIPLNEESSKGAGQIEEFLMQFNGEGIQHVAFLTDDLVKTWDALKKIGMRFMTAPADNYYEMLEGRLPDHGEPVDQLQARGILLDGSSVEGDKRLLLQIFSETLMGPVFFEFIQRKGDDGFGPHSFKVLFEQMERDQVRRGVLTAD | 0.166 |  | 53 | 0.314
8 | SEQ ID NO:3 (protein, mutant HPPD polypeptide) MADLYENPMGLMGFEFIEFASPTPGTLEPIFEIMGFTKVATHRSKNVHLYRQGEINLILNNEPNSIASYFAAEHGPSVCGMAFRVKDSQKAYNRALELGAQPIHIDTGPMELNLPAIKGIGGAPLYLIDRFGEGSSIYDIDFVYLEGVERNPVGAGLKVIDHLTHNVYRGRMVYWANFYEKLFNFREARYFDIKGEYTGLTSKAMSAPDGMIRIPLNEESSKGAGQIEEFLMQFNGEGIQHVAFLTDDLVKTWDALKKIGMRFMTAPADTYYEMLEGRLPDHGEPVDQLQARGILLDGSSVEGDKRLLLQIFSETLMGPVFFEFIQRKGDDGFGPDSFKVLFESIERDQVRRGVLTAD |  | improvement regarding residual turnovers |  | 
9 | 46 (protein, mutant HPPD polypeptide) MADLYENPMGLMGFEFIEFASPTPGTLEPIFEIMGFTKVATHRSKNVHLYRQGEINLILNNEPNSIASYFAAEHGPSVCGMAFRVKDSQKAYNRALELGAQPIHIDTGPMELNLPAIKGIGGAPLYLIDRFGEGSSIYDIDFVYLEGVERNPVGAGLKVIDHLTHNVYRGRMVYWANFYEKLFNFREARYFDIKGEYTGLTSKAMSAPDGMIRIPLNEESSKGAGQIEEFLMQFNGEGIQHVAFLTDDLVKTWDALKKIGMRFMTAPGDNYYEMLEGRLPDHGEPVDQLQARGILLDGSSVEGDKRLLLQIFSETLMGPVFFEFIQRKGDDGFGPHSFKVLFEQVERDQVRRGVLTAD | 0.098 |  | 55 | 0.179
